In test [1] the target is T1, Ins 5 type mutant CALR protein on UT-7/TPO CALR Ins 5 cells (UniProt P27797 18-417).
T1 sequence (looked up): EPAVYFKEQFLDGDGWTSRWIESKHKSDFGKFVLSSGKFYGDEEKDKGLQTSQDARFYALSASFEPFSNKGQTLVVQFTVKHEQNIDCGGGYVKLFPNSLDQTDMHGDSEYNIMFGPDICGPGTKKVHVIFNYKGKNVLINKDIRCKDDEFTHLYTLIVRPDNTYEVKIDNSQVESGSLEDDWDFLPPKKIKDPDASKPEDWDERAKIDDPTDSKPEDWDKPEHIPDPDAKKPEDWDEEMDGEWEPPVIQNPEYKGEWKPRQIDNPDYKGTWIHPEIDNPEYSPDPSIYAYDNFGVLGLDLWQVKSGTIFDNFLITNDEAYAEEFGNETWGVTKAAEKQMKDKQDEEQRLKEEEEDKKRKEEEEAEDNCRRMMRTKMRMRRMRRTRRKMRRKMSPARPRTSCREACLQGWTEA
The experiment in a line: cell-based or functional assay.

The target of test [2] is T2, protein having an Fc region and a His-tag added to the N-terminus of SEQ ID NO: 1.
T2 construct: also called mutant CALR protein (antigen of the BLItz measurement); not shown: Fc region and His-tag at the N-terminus
T2 chain: RRMMRTKMRMRRM
The experiment in a line: BLItz biolayer interferometry, Fc/His-SEQ ID NO: 1 protein on the biosensor. How it is done:
As another method, measurements were performed using the molecular interaction analysis system BLItz (ForteBio), which applies biolayer interferometry […]. Specifically, a protein having an Fc region and a His-tag added to the N-terminus of SEQ ID NO: 1 was immobilized at a concentration of 0.1 mg/mL using the Anti-Penta-HIS or ProteinA biosensor (ForteBio). Subsequently, the antibodies 1 to 114 made were prepared at a concentration of 500, 100, and 50 nM and reacted to acquire the dissociation constant.
In general terms: Biolayer interferometry detects binding as a change in optical thickness at a sensor tip.

The target in test [3] is T1, Ins 5 type mutant CALR protein on …. Put plainly: cell-based or functional assay. This is another data set of the same source.

Substitutions are numbered along the chain they refer to.

B1: Antibody 11 (bispecific antibody)
chain: QVQLVQSGGGVVQPGRSLRLSCKASGYTFTRYTMHWVRQAPGKGLEWIGYINPSRGYTNYNQKVKDRFTISRDNSKNTAFLQMDSLRPEDTGVYFCARYYDDHYSLDYWGQGTPVTVSSGGGGSGGGGSGGGGSDIQMTQSPSSLSASVGDRVTITCSASSSVSYMNWYQQTPGKAPKRWIYDTSKLASGVPSRFSGSGSGTDYTFTISSLQPEDIATYYCQQWSSNPFTFGQGTKLQITRGGGGSQVQLQQSGAELVKPGSSVKISCKASGYTFTRNFIHWIKQQPGNGLEWIGWIFPGDGDTEYNQKFNGKATLTADKSSSTAYMQLSSLTSEDSAVYFCARGNYNYEYFDYWGQGVMVTVSSGGGGSGGGGSGGGGSDIQMTQSPASLSASLGETVSIECLASEDIYSYLAWYQQKPGKSPQLLIFAANRLQDGVPSRFSGSGSGTQFSLKISGMQPEDEGDYFCLQGSKFPYTFGPGTKLELNHHHHHH
Take B1: in test [1], the “EC50 of cytotoxic activity (calcein release, T-LAK effector cells)” value (from here on “EC50 … (calcein release, T-LAK effector cells)”) is 1260 pM.

B2: Antibody 16 (bispecific antibody)
heavy: QVQLQQSGAELVKPGSSVKISCKASGYTFTRNFIHWIKQQPGNGLEWIGWIFPGDGDTEYNQKFNGKATLTADKSSSTAYMQLSSLTSEDSAVYFCARGNYNYEYFDYWGQGVMVTVSSASTKGPSVFPLAPSSKSTSGGTAALGCLVKDYFPEPVTVSWNSGALTSGVHTFPAVLQSSGLYSLSSVVTVPSSSLGTQTYICNVNHKPSNTKVDKRVEPKSCGGGGSQVQLVQSGGGVVQPGRSLRLSCKASGYTFTRYTMHWVRQAPGKGLEWIGYINPSRGYTNYNQKVKDRFTISRDNSKNTAFLQMDSLRPEDTGVYFCARYYDDHYSLDYWGQGTPVTVSSGGGGSGGGGSGGGGSDIQMTQSPSSLSASVGDRVTITCSASSSVSYMNWYQQTPGKAPKRWIYDTSKLASGVPSRFSGSGSGTDYTFTISSLQPEDIATYYCQQWSSNPFTFGQGTKLQITRHHHHHH
light: DIQMTQSPASLSASLGETVSIECLASEDIYSYLAWYQQKPGKSPQLLIFAANRLQDGVPSRFSGSGSGTQFSLKISGMQPEDEGDYFCLQGSKFPYTFGPGTKLELNRTVAAPSVFIFPPSDEQLKSGTASVVCLLNNFYPREAKVQWKVDNALQSGNSQESVTEQDSKDSTYSLSSTLTLSKADYEKHKVYACEVTHQGLSSPVTKSFNRGEC
notes: B3 Fab with hOKT3 scFv fused to the Fab heavy chain C-terminus
As for B2, the “EC50 … (calcein release, T-LAK effector cells)” value in test [1] was 334 pM. Also, the Kd in test [2] is 2830 pM.

B3: Antibody 18 (bispecific antibody)
heavy: QVQLQQSGAELVKPGSSVKISCKASGYTFTRNFIHWIKQQPGNGLEWIGWIFPGDGDTEYNQKFNGKATLTADKSSSTAYMQLSSLTSEDSAVYFCARGNYNYEYFDYWGQGVMVTVSSASTKGPSVFPLAPSSKSTSGGTAALGCLVKDYFPEPVTVSWNSGALTSGVHTFPAVLQSSGLYSLSSVVTVPSSSLGTQTYICNVNHKPSNTKVDKRVEPKSCGGGGSQVQLVQSGGGVVQPGRSLRLSCKASGYTFTRYTMHWVRQAPGKGLEWIGYINPSRGYTNYNQKVKDRFTISRDNSKNTAFLQMDSLRPEDTGVYFCARYYDDHYSLDYWGQGTPVTVSSGGGGSGGGGSGGGGSDIQMTQSPSSLSASVGDRVTITCSASSSVSYMNWYQQTPGKAPKRWIYDTSKLASGVPSRFSGSGSGTDYTFTISSLQPEDIATYYCQQWSSNPFTFGQGTKLQITRAAAGGGQPREPQVYTLPPSREEMTKNQVSLTCLVKGFYPSDIAVEWESNGQPENNYKTTPPVLDSDGSFFLYSKLTVDKSRWQQGNVFSCSVMHEALHNHYTQKSLSLSPGK
light: B2 light
notes: B3 Fab heavy chain, hOKT3 scFv and CH3 domain in one polypeptide, with the B3 light chain
For B3, in test [1], the “EC50 … (calcein release, T-LAK effector cells)” value was 81 pM. Further, the Kd in test [2] is under 1 pM.

B4: Antibody 17 (bispecific antibody)
heavy: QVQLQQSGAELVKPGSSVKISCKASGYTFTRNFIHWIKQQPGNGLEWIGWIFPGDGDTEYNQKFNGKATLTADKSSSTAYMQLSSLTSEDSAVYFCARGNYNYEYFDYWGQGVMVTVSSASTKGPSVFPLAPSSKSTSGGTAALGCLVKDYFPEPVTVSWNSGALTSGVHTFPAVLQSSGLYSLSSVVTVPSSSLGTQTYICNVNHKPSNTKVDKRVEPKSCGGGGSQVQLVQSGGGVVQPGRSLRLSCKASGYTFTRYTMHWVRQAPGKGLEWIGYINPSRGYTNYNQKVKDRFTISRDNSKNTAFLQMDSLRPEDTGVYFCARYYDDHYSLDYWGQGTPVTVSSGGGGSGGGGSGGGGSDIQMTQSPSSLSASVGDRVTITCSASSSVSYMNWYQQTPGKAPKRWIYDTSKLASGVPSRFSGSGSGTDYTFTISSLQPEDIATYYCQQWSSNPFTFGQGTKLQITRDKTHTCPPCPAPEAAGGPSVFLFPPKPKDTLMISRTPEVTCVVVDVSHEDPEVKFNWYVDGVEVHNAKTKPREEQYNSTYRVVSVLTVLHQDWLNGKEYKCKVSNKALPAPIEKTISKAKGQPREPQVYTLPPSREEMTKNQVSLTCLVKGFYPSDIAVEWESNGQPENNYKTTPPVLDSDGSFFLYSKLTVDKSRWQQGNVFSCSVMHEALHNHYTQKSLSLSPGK
light: B2 light
notes: B3 Fab heavy chain, hOKT3 scFv and Fc in one polypeptide, with the B3 light chain
As to B4, the “EC50 … (calcein release, T-LAK effector cells)” value in test [1] was 46 pM. The Kd in test [2] is under 1 pM.

B5: Antibody 25 (bispecific antibody)
heavy: QVQLQQSGAELVKPGSSVKISCKASGYTFTRNFIHWIKQQPGNGLEWIGWIFPGDGDTEYNQKFNGKATLTADKSSSTAYMQLSSLTSEDSAVYFCARGNYNYEYFDYWGQGVMVTVSSASTKGPSVFPLAPSSKSTSGGTAALGCLVKDYFPEPVTVSWNSGALTSGVHTFPAVLQSSGLYSLSSVVTVPSSSLGTQTYICNVNHKPSNTKVDKRVEPKSCAAAGGGQPREPQVYTLPPSREEMTKNQVSLTCLVKGFYPSDIAVEWESNGQPENNYKTTPPVLDSDGSFFLYSKLTVDKSRWQQGNVFSCSVMHEALHNHYTQKSLSLSPGK
light: QVQLVQSGGGVVQPGRSLRLSCKASGYTFTRYTMHWVRQAPGKGLEWIGYINPSRGYTNYNQKVKDRFTISRDNSKNTAFLQMDSLRPEDTGVYFCARYYDDHYSLDYWGQGTPVTVSSGGGGSGGGGSGGGGSDIQMTQSPSSLSASVGDRVTITCSASSSVSYMNWYQQTPGKAPKRWIYDTSKLASGVPSRFSGSGSGTDYTFTISSLQPEDIATYYCQQWSSNPFTFGQGTKLQITRGGGGSDIQMTQSPASLSASLGETVSIECLASEDIYSYLAWYQQKPGKSPQLLIFAANRLQDGVPSRFSGSGSGTQFSLKISGMQPEDEGDYFCLQGSKFPYTFGPGTKLELNRTVAAPSVFIFPPSDEQLKSGTASVVCLLNNFYPREAKVQWKVDNALQSGNSQESVTEQDSKDSTYSLSSTLTLSKADYEKHKVYACEVTHQGLSSPVTKSFNRGEC
Turning to B5, in test [1], the “EC50 … (calcein release, T-LAK effector cells)” value is 56 pM.

B6: Antibody 67 (bispecific antibody)
chain 1: not shown
chain 2: DIQMTQSPSFVSASVGDRVTITCLASEDIYSYLAWYQQKPGKAPKLLIFAANRLQDGVPSRFSGGGSGTGFTLTISSLQPEDFATYFCLQGSKFPYTFGQGTKLEINRTVAAPSVFIFPPSDEQLKSGTASVVCLLNNFYPREAKVQWKVDNALQSGNSQESVTEQDSKDSTYSLSSTLTLSKADYEKHKVYACEVTHQGLSSPVTKSFNRGEC
In the case of B6, the “EC50 of cytotoxic activity (pM)” value in test [3] came out at 5900 pM. In addition, in test [2], the Kd was under 1 pM.

B7: Antibody 82 (bispecific antibody)
chain 1: not shown
chain 2: B6 chain 2 with F10S, V11L, D56S, G65S, G70D, F87Y, Q100P, L104V, E105D, N107K
In the case of B7, the “EC50 of cytotoxic activity (pM)” value in test [3] came to 22 pM. For the same molecule, in test [2], the Kd is under 1 pM.

B8: Antibody 71 (bispecific antibody)
chain 1: not shown
chain 2: B6 chain 2 with D56S
On to B8, for which, in test [3], the “EC50 of cytotoxic activity (pM)” value is 448 pM. For the same molecule, the Kd in test [2] was 554 pM.

B9: Antibody 69 (bispecific antibody)
chain 1: not shown
chain 2: B6 chain 2 with D56S
On to B9, for which, in test [3], the “EC50 of cytotoxic activity (pM)” value amounted to 162 pM. In test [2], this molecule displayed a Kd of under 1 pM.

B10: Antibody 75 (bispecific antibody)
chain 1: not shown
chain 2: B6 chain 2 with D56S, N107K
As for B10, the “EC50 of cytotoxic activity (pM)” value in test [3] was found to be 77 pM. In addition, the Kd in test [2] is under 1 pM.

B11: Antibody 80 (bispecific antibody)
chain 1: not shown
chain 2: B6 chain 2 with F10S, V11L, G65S, G70D, F87Y, Q100P, L104V, E105D, N107K
On to B11, for which the “EC50 of cytotoxic activity (pM)” value in test [3] was 28 pM. In test [2], the Kd is under 1 pM.

B12: Antibody 74 (bispecific antibody)
chain 1: not shown
chain 2: B6 chain 2 with D56S, N107K
For the molecule B12, the “EC50 of cytotoxic activity (pM)” value in test [3] is 31 pM. In test [2], this molecule gave a Kd of under 1 pM.

B13: Antibody 83 (bispecific antibody)
chain 1: not shown
chain 2: B6 chain 2 with F10S, V11L, D56S, G65S, G70D, F87Y, Q100P, L104V, E105D, N107K
As to B13, the “EC50 of cytotoxic activity (pM)” value in test [3] stood at 110 pM. The Kd in test [2] was under 1 pM.

B14: Antibody 85 (bispecific antibody)
chain 1: not shown
chain 2: B6 chain 2 with F10S, V11L, D56S, G65S, G70D, F87Y, Q100P, L104V, E105D, N107K
Consider B14, for which the “EC50 of cytotoxic activity (pM)” value in test [3] came out at 389 pM. The same molecule yielded a Kd in test [2] of under 1 pM.

B15: Antibody 84 (bispecific antibody)
chain 1: not shown
chain 2: B6 chain 2 with F10S, V11L, D56S, G65S, G70D, F87Y, Q100P, L104V, E105D, N107K
Take B15: the “EC50 of cytotoxic activity (pM)” value in test [3] was 277 pM. Besides, in test [2], the Kd is under 1 pM.

B16: Antibody 78 (bispecific antibody)
chain 1: not shown
chain 2: B6 chain 2 with D56S, N107K
Regarding B16, the “EC50 of cytotoxic activity (pM)” value in test [3] is 63 pM. The equilibrium dissociation constant (Kd) in test [2] is under 1 pM.

B17: Antibody 72 (bispecific antibody)
chain 1: not shown
chain 2: B6 chain 2 with D56S
Turning to B17, the “EC50 of cytotoxic activity (pM)” value in test [3] is 93 pM. Moreover, the Kd in test [2] is under 1 pM.

B18: Antibody 68 (bispecific antibody)
chain 1: not shown
chain 2: B6 chain 2 with D56S
Consider B18, for which the “EC50 of cytotoxic activity (pM)” value in test [3] turned out to be 27 pM. Also, the Kd in test [2] was under 1 pM.

B19: Antibody 77 (bispecific antibody)
chain 1: not shown
chain 2: B6 chain 2 with D56S, N107K
As for B19, the “EC50 of cytotoxic activity (pM)” value in test [3] is 129 pM. Further, the Kd in test [2] is under 1 pM.

B20: Antibody 76 (bispecific antibody)
chain 1: not shown
chain 2: B6 chain 2 with D56S, N107K
Regarding B20, in test [3], the “EC50 of cytotoxic activity (pM)” value came to 300 pM. This molecule also showed a Kd in test [2] of under 1 pM.

B21: Antibody 70 (bispecific antibody)
chain 1: not shown
chain 2: B6 chain 2 with D56S
With B21, in test [3], the “EC50 of cytotoxic activity (pM)” value worked out at 507 pM. For the same molecule, in test [2], the Kd was under 1 pM.

As usually defined, the Kd is a measure of binding affinity in units of concentration.
